Molecular target: KLF4 (Homo sapiens) (UniProt O43474)
Assay: DPI-ELISA competition
Details: KLF4 0-150 ng against 80 ng Sp1; 2 pmol DNA; EMSA: 2 ug nuclear extract or 50 ng KLF4, 30 min on ice, 6% native PAGE; DPI-ELISA: 2 pmol biotin-DNA, 2 h; buffer, salt and pH not stated

UniProt O43474, sequence (O43474 whole entry): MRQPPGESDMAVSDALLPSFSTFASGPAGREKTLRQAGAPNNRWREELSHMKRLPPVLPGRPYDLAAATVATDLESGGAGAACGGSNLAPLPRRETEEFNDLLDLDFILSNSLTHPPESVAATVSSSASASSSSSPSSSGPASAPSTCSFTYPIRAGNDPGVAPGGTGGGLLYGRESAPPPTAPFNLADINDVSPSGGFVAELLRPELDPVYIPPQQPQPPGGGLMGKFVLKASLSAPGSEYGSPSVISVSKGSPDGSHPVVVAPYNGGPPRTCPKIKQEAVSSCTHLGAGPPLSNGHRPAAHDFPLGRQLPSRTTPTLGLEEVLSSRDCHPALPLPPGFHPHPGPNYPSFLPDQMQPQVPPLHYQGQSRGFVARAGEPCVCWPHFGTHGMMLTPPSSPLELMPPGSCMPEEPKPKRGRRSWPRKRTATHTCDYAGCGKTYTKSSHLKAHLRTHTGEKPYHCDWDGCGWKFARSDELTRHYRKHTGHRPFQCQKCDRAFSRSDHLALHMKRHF

Sequence: GGTCCCAGAGCACGAGCCCCCGCCCCCGGTGGCCCC (double strand) [CPI-17 GC box 2 biotinylated]
- IC50: 29 ng

From PMC6517596
